Test results taken from patent publication US20220017612A1 (TILOS THERAPEUTICS, published 2022).

Experiments:
[1] = molecular target: T1, LAP-TGFβ1 on U937 cells (Homo sapiens, UniProt P01137); assay: flow cytometry dot plot against GARP, U937 cells, Alexa 647 antibody at 10 ug/ml
T1 construct: cell surface, endogenous; also called LAP+ U937 cells
Protocol: (§1) Anti-LAP antibodies were tested for their ability to bind to U937 cells, a myeloid cell line derived from a patient with histiocytic lymphoma. U937 cells were incubated with FACS buffer and human Fc block followed by incubation with varying concentrations of Alexa 647 conjugated 28G11_hyb, 22F9_mIgG2a, or 20E6_mIgG2a. In a separate experiment U937 cells were incubated with FACS buffer and human Fc block followed by incubation with 10 ug/ml of Alexa 647 conjugated 28G11_hyb, 22F9_mIgG2a, 20E6_mIgG2a or mIgG2a isotype control (FIGS. 10E and 10F). Representative dot plots are shown in FIG. 10G; in these plots, antibodies were at 10 ug/ml.

[2] = molecular target: T2, human-chicken LAP-TGFβ1 chimera #2.2 on HT1080 cells (human/chicken chimera, UniProt P01137 30-390); assay: flow cytometry, HT1080 cells
T2 construct: also called HT1080-ch2.2
Protocol: (§2) These constructs were subcloned into lentivirus and transduced into HT1080 cells. Successful gene integration was confirmed by expression of a green fluorescent protein (GFP) reporter gene. LAP-TGFβ1 expression was evaluated by flow cytometry using a rabbit monoclonal antibody (Rmab) raised against a peptide from the mature cytokine (residues 250-361) domain (Abeam cat #ab179695), 28G11_(hyb) and 2C9_(hyb). Briefly, 4×10⁵ each of (a) HT1080 cells, (b) HT1080 cells overexpressing human LAP-TGFβ1, (c) HT1080 cells overexpressing chicken LAP-TGFβ1, and (d) HT1080 cells overexpressing human/chicken chimeras #1-#7 were cultured in 96-well plates. The plates were centrifuged for 5 min at 1,500 rpm, liquid was removed, and cells were resuspended with 200 μL FACS buffer. The plates were centrifuged again, diluted primary antibody was added to each well, and the plates were incubated on ice for 20 minutes, followed by centrifugation. The cells were resuspended in 200 μL FACS buffer, centrifuged again, and resuspended in 50 μL diluted secondary antibody (APC-anti-Mouse IgG). The plates were incubated on ice for 20 minutes in the dark, washed twice with 200 μL FACS buffer, and cells from each well (in 200 μL FACS buffer) were read on the Attune NXT instrument. The antibodies were considered to be binding if >10% of cells were GFP+/APC+ and there was visible correlation between the GFP and allophycocyanin (APC) signals (Table 5).

[3] = molecular target: T3, human-chicken LAP-TGFβ1 chimera #2.1 on HT1080 cells (human/chicken chimera, UniProt P01137 30-390); assay: flow cytometry, HT1080 cells
Protocol: as §2

[4] = molecular target: T4, chicken LAP-TGFβ1 on HT1080 cells (chicken, UniProt P09531 19-391); assay: flow cytometry, HT1080 cells
T4 construct: also called chB1
T4 sequence: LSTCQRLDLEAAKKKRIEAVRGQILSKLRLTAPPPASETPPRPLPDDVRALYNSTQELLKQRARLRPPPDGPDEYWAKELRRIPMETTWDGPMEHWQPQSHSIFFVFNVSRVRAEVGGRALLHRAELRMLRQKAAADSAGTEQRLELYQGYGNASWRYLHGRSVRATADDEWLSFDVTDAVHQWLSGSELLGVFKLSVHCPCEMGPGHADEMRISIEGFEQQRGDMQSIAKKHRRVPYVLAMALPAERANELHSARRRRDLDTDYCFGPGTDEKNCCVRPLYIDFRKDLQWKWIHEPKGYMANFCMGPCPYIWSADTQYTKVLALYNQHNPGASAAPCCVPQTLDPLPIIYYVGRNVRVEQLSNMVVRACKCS
Protocol: as §2

[5] = molecular target: T1, LAP-TGFβ1 on U937 cells; assay: flow cytometry, U937 cells, Alexa 647 antibody, % LAP+ cells
Protocol: as §1

[6] = molecular target: human-chicken LAP-TGFβ1 chimera #1.2 on HT1080 cells (human/chicken chimera, UniProt P01137 30-390); assay: flow cytometry, transduced HT1080 cells
Protocol: as §2

[7] = molecular target: human-chicken LAP-TGFβ1 chimera #3 on HT1080 cells (human/chicken chimera, UniProt P01137 30-390); assay: flow cytometry, transduced HT1080 cells
Protocol: as §2

[8] = molecular target: T5, human LAP-TGFβ1 overexpressed on cells (human, UniProt P01137 30-390); assay: flow cytometry, transduced HT1080 cells
T5 construct: HT1080 or P3U1 cells overexpressing wild-type human LAP-TGFβ1; also called HT1080-huB1; HT1080-hβ1
Protocol: as §2

[9] = molecular target: human-chicken LAP-TGFβ1 chimera #7 on HT1080 cells (human/chicken chimera, UniProt P01137 30-390); assay: flow cytometry, transduced HT1080 cells
Protocol: as §2

[10] = molecular target: T2, human-chicken LAP-TGFβ1 chimera #2.2 on …; assay: flow cytometry, transduced HT1080 cells
Protocol: as §2

[11] = molecular target: T6, human-chicken LAP-TGFβ1 chimera #2.3 on HT1080 cells (human/chicken chimera, UniProt P01137 30-390); assay: flow cytometry, transduced HT1080 cells
T6 construct: also called HT1080-ch2.3
Protocol: as §2

[12] = molecular target: human-chicken LAP-TGFβ1 chimera #1.3 on HT1080 cells (human/chicken chimera, UniProt P01137 30-390); assay: flow cytometry, transduced HT1080 cells
Protocol: as §2

[13] = molecular target: human-chicken LAP-TGFβ1 chimera #5 on HT1080 cells (human/chicken chimera); assay: flow cytometry, transduced HT1080 cells
Protocol: as §2

[14] = molecular target: human-chicken LAP-TGFβ1 chimera #6 on HT1080 cells (human/chicken chimera, UniProt P01137 30-390); assay: flow cytometry, transduced HT1080 cells
Protocol: as §2

[15] = molecular target: T7, human-chicken LAP-TGFβ1 chimera #4 on HT1080 cells (human/chicken chimera, UniProt P01137 30-390); assay: flow cytometry, transduced HT1080 cells
T7 construct: also called HT1080-ch4
Protocol: as §2

[16] = molecular target: T3, human-chicken LAP-TGFβ1 chimera #2.1 on …; assay: flow cytometry, transduced HT1080 cells
Protocol: as §2

[17] = molecular target: T4, chicken LAP-TGFβ1 on HT1080 cells; assay: flow cytometry, transduced HT1080 cells
Protocol: as §2

T1 sequence (P01137 30-390 limits assumed): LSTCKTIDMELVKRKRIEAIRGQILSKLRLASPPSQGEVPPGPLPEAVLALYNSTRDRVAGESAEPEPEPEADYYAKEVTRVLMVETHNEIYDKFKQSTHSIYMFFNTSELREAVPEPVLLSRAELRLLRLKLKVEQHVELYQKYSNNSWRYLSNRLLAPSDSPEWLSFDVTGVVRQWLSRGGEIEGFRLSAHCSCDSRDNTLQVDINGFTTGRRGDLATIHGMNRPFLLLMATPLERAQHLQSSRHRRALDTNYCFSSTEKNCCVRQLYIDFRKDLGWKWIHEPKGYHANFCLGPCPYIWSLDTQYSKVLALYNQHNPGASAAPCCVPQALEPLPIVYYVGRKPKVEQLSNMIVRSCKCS
T3 sequence (P01137 other isoform, or with tags, fused parts or gaps mutant): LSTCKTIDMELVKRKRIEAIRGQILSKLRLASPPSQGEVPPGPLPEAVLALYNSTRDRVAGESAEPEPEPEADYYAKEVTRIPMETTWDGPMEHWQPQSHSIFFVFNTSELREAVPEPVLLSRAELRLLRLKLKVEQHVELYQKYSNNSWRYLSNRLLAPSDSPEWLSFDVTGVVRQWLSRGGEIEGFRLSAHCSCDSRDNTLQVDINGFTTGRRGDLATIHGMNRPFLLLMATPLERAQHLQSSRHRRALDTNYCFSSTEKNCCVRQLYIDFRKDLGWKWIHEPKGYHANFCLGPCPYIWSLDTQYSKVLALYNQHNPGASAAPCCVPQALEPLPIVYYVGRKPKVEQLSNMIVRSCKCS
T2 sequence (P01137 other isoform, or with tags, fused parts or gaps mutant): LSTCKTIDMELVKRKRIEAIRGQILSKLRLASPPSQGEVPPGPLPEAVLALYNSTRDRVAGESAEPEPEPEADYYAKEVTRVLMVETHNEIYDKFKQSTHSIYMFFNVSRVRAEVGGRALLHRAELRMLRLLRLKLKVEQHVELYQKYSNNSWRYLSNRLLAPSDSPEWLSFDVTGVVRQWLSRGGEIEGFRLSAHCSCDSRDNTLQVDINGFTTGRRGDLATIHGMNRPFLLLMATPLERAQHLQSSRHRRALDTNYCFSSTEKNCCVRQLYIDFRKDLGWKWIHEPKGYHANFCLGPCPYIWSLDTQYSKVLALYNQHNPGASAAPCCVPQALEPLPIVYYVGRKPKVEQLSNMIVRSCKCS
Chain of human-chicken LAP-TGFβ1 chimera #6 on HT1080 cells (P01137 other isoform, or with tags, fused parts or gaps mutant): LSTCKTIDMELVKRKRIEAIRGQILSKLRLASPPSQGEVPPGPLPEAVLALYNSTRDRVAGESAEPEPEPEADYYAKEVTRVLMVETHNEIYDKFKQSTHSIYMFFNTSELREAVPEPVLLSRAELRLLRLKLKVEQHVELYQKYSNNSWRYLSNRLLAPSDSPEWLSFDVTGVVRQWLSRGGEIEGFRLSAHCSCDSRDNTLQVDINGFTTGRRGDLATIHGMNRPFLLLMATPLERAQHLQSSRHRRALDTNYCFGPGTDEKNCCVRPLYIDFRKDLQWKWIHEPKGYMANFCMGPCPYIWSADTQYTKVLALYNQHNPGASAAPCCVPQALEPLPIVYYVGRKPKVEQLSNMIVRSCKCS
T5 sequence (P01137 30-390): as the sequence (P01137 30-390 limits assumed) above
Chain of human-chicken LAP-TGFβ1 chimera #1.2 on HT1080 cells (P01137 other isoform, or with tags, fused parts or gaps mutant): as the sequence (P01137 30-390 limits assumed) above, with A31T, S32A, S35P, Q36A, G37S, V39T, G42R, E46D, A47D, L49R counted along it
T6 sequence (P01137 other isoform, or with tags, fused parts or gaps mutant): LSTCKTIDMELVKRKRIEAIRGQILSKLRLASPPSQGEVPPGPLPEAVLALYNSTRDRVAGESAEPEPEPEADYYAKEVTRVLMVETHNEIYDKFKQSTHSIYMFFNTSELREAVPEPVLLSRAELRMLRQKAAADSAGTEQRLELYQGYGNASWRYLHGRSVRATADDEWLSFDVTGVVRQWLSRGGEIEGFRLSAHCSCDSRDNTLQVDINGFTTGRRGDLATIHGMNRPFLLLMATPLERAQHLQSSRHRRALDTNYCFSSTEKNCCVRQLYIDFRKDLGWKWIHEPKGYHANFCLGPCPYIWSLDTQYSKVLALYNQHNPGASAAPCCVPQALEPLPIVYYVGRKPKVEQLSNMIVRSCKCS
Chain of human-chicken LAP-TGFβ1 chimera #1.3 on HT1080 cells (P01137 other isoform, or with tags, fused parts or gaps mutant): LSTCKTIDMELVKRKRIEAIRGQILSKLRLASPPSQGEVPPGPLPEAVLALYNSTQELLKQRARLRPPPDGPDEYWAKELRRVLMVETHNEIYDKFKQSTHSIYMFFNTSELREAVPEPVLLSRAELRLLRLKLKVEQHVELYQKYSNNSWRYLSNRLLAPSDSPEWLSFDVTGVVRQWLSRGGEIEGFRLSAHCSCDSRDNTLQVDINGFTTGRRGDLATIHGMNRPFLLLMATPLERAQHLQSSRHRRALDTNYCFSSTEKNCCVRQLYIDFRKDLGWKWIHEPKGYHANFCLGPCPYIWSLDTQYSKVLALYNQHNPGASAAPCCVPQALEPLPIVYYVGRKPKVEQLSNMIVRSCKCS
T7 sequence (P01137 other isoform, or with tags, fused parts or gaps mutant): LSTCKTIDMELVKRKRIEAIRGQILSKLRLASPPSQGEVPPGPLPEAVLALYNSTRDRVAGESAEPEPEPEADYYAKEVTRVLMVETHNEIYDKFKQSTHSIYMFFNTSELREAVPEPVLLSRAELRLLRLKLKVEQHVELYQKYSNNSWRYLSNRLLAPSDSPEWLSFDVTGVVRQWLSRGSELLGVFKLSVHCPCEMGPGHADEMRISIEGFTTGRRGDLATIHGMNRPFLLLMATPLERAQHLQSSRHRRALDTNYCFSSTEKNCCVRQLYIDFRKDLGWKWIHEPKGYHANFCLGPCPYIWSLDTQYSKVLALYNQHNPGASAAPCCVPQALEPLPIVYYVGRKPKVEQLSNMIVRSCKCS
Chain of human-chicken LAP-TGFβ1 chimera #5 on HT1080 cells (human/chicken chimera) (chain, as listed by the source mutant limits assumed): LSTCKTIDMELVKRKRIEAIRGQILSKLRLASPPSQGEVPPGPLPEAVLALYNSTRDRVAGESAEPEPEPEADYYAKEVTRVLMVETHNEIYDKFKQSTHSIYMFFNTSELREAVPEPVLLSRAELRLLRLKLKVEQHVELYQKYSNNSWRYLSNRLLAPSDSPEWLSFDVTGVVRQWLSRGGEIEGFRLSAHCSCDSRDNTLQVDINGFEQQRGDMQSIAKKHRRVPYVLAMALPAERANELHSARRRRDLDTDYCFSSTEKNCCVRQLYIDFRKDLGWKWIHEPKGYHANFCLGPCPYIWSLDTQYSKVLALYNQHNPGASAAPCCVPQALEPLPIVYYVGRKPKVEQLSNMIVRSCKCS
Chain of human-chicken LAP-TGFβ1 chimera #3 on HT1080 cells (P01137 other isoform, or with tags, fused parts or gaps mutant): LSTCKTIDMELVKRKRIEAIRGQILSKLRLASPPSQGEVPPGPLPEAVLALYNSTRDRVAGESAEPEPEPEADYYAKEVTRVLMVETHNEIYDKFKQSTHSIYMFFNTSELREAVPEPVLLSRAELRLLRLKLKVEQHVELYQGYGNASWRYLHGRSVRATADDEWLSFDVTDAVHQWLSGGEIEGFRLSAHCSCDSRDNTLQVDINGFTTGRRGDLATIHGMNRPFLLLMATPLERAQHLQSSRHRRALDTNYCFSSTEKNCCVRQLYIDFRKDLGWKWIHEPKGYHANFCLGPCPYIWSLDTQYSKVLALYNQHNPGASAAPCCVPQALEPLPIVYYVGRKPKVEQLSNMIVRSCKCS

% of cells in Q1 (antibody axis positive, GARP negative) [1]: 6.56%
% of cells in Q2 (antibody axis positive, GARP positive) [1]: 0.16%
binding result [2]: no binding
binding result [3]: no binding
binding result [4]: no binding
EC50 (read off the curve) [5]: ~30 µg/mL
% GFP+/APC+ cells [6]: 84.1%
% GFP+/APC+ cells [7]: 32.2%
% GFP+/APC+ cells [8]: 98.3%
% GFP+/APC+ cells [9]: 44.4%
% GFP+/APC+ cells [10]: 0.5%
% GFP+/APC+ cells [11]: 94.7%
% GFP+/APC+ cells [12]: 83%
% GFP+/APC+ cells [13]: 41.7%
% GFP+/APC+ cells [14]: 84.9%
% GFP+/APC+ cells [15]: 76.2%
% GFP+/APC+ cells [16]: 3.5%
% GFP+/APC+ cells [17]: 0.3%
B1: 28G11_(hyb) (antibody, mouse IgG2b, kappa, V domains shown)
VH: EVKLVESGGGLVQPGGSLSLSCAASGFTFTDYYMSWVRQPPGKALEWLGFIRNKPNGYTTEYSASVKGRFTISRDNSQSILYLQMNVLRAEDSATYYCARYTGGGYFDYWGQGTTLTVSS
VL: DIQMTQTTSSLSASLGDRLTISCRASQDISNYLNWYQQKPDGTVKLLIYYTSRLHSGVPSRFSGSGSGTDYSLTISNLEQADIATYFCQQGDTLPWTFGGGTKLEIKR
notes: parental murine antibody; also called murine hybridoma 28G11; biotin-28G11
